Assay results reported in the DeepSol protein solubility set.

Test: soluble on expression in E. coli; label from the status in PepcDB or PDB records

Sequence | soluble on expression in E. coli
MGSDKIHHHHHHMTVGTLPIWSKTFSYAIRSLCFLHIIHMYAYEFTETRGESMLPTLSATNDYVHVLKNFQNGRGIKMGDCIVALKPTDPNHRICKRVTGMPGDLVLVDPSTIVNYVGDVLVDEERFGTYIKVPEGHVWVTGDNLSHSLDSRTYNALPMGLIMGKIVAANNFDKPFWDGSIRNIWGFKWINNTFLDVQAKSN | not soluble
MGSDKIHHHHHHMTVHDRIVAEPFSLQRRNPAGGTKPLTSWGFANETDVLTDVLLGSPNFLRHLSTSSLSRKHLREAPCNVQIAQAQHKDLVAAYEHFGVNIHWHEPTPELPMQVYSRDSSVMTPYGAIITAMANWWRRGENYAAIRTYEKLGIPIYDMVTAGTFEGGDFNVIEDGVVLIGCGGARTQEEGARQVQAWFEKEGWETRIAFIDEYYVHIDLMVVPIAEKLTAVCLACTEPGIVDWLKGKGHEIIDVPFQDTMALGCNFMSLGKDRVIAPTSSQTLIGQLKARGFEVAAVDMSEISKTGGGIHCMAQALKREAA | not soluble
MGSDKIHHHHHHMTVNDYALVTGASGFLGSAVVRQALARGWRVRALVRATSPRANLDGLPVEVFEGDMRDPAALTSAMRGVRYLFHVAADYRLWAPDPEEIVRTNVDGTMAVMEAAQEAGVERVVYTSSVATLRVAGASAPVDETAAMTPHEAIGAYKRSKVLAERVVERMVAERGLPAVIVNPSTPIGPRDVRPTPTGRIIVEAATGKIPAFVETGLNLVHVDDVAAGHFQALERGRIGERYILGGDDVMLQQMLRDIADLCGRRPPTVQLPRWPLYPLAHAAEAVARITRKEPFVTVDGLHMSKYRMFFRSDKARQELGYQPRPYIDGLRDALDWFREAGYLR | not soluble
MGSDKIHHHHHHMVAMRIAIIGANGQLGTDLVEVFGNDPEFEVVPLTHKDLDVTIPESLKVLKEIKPDVLINTAAYVRVDDAELYPEKAFAVNAIGALNVARIANEIDAVNVYISTDYVFDGEKGEPYTEEDVPNPINVYGVSKYTGEIFTRNYSPKHYIIRVASLYGKAGASGKGGNFVEWVIEKAKHGEELKIVDDQFMSPTYTKDVARTLKEFLKLRSEFGVYHMVNEGFCSWYEFTEAIFDVLGWNVEIKPIKSNELNRLAKRPRFSALKNEKLEKIGLRMRHWREALEEYLKEKGYV | not soluble
MGSDKIHHHHHHMVATLDDTKRNAIAVKLASIKALQQLVIENEQSLLREGLDAEIADRIRNFLKDDEKNLGVLETVIGQYGIQAEPKKNVTQFIEKARELFKGSELSLYEKVSQHELLKHQLVMSGLIVHKAAQKVGADVLLAIGPLNTINFENRAHQEQLKGILEILGVREFTGQDADQGIWARVQDAMAAVSGVVGSAVTQTSDKSDLNIQDVIRLDHNKVNTLFTELLQSDNPQKIQEYFGQIYKDLTAHAEAEEEVVYPRVRPFYGQDNTQELFDEQAEMKRVLEQIKAISPSSSEFKDRVRQLMEAVGDHIRQEESTMFAAIRNNLSSDQSEQLATEFKAAKTRIQEKLGVVSESNA | not soluble
MGSDKIHHHHHHMVEMNFKVDAFEGPLDLLLHLIGQLEVDIYDIPMAEITDQYMEFVHTMQEMELDVASEYLVMAATLLAIKSKMLLPKQELEIDYDTLEEEEDPRDALVEKLMEYKRFKEAAKELKEKEAERSFYFSKPPMDLAEYDDGTKVAELDVSLNDMLSAFNKMLRRKKLNKPLHTRITTQEISIDQRMDSVLEKLNLQVNHRLRFDELFEEQTKEQLVVTFLALLELMKRKLVEVEQAESFADLYVQGKGEEIS | not soluble
MGSDKIHHHHHHMVETKLIIRADDLGYSDAVNIGIERSVHKGIINNVGVMVNMPTTLDGLSMIRDTKVCLGLHVVISSGRPLLNPKFIPSIVDDDGAFLSSADYRKAPNDFVNLDEVILEIEAQYQKFIELVGRKPDYFEGHAVVSDNFFKGLLVVAKCHQLNLLQVTLNSGRPSLLFKGHSLHVFMESMNKDYNPYQTLKRAVLSSCDEEYPMMICHPGYLDDYLLKHSSLTTPRTKEVEMLTDPQVRAWLYQHQVRLIKYNEI | not soluble
MGSDKIHHHHHHMVEVVGVRFREAGHIYYFAPGKSEYIYNEKVLVESQQSKQLATVAIPKKTVDSDDLPEDLKPILNKATANDLEKEQKNLADAEAAKSIANEKIRAHDLKMKLVRVEYTFDRSKMIFYFTADGRIDFRELVKDLAAIFRTRIELRQIGVRDEAKILGGIGPCGRQLCCSTFLGDFMPVSIKMAKDQGLSLNPVKISGLCGRLMCCLKYENDEYEAAKKELPDYGKEVITPDGKGKVVGLNLLSRIVKVRLHGREIAADYDYEEIKEATAKVAAEKGDQNG | not soluble
MGSDKIHHHHHHMVIYMIGGSPCSGKSTIASLLARQYQLLHIKLDDLVDEMMSQASADSQPICLLRQDRNPEQIWMRNPKEMADEEWRFYEEIFPYVKSYLIKKDRPLLVEGAGLLPHLVKELEWPASSYLCLTPTADFQKKHYRQREWVSYVLEGTTNPEQAFENWMQRDILFAQMVRKEAMRLGYSSLMTDGSQSEKQTAEEIARLLKLYNINEIDIKGENT | not soluble
MGSDKIHHHHHHMVNKFTQFLVAFISLWMLHSCSGPQKEYVLKVKLNKLTQKDMYEYNLVKDVIFDAQELNVDSIKARSRESFLKGVDEYKNKHNAAAAVPLFKQSILTFPDAKTYYELGNALMELNTEASLDESIKAYRVAEELDIKPIASVYYKMACAQNMIGTLKKSDEDEYMVISYLRKSFINGFYDTLTLAKDTRINSILSTMSYKTLLRELESFKYKEDRNGLFELFKQAYPRPVEFEAALTDLTQYENKESISYDFAVFVPEMQNTEFGREVSNDFFYNALVQETPAYTALIYTSVSFWGDHDALMPSFTSLVTYDPMGIIIDRKLIACQCSAEKVKTVKIKDNKVYVEDFKRIWKQPIDKVSFDDNEVDKFESLAKLTYTINEDGTIQASEIPANYMDTVITKDQSKNTPQ | not soluble
MGSDKIHHHHHHMVNMNIIEIRSDKIYKKIMDAPINKKEDIYRYELMKPFEFKWKCMNVPIVARQKGGYDVIIASEMLGVLSPKDIDEKQKKNINVLSADKIWATCKETIENSINAFIKEGYDLNIKDYKYSILLANPNSPYTILSDGYWGDGGIPGYIFLSLVPNEYTINRLPVLIAHECNHNIRFQFIEWNNNITLEEMMINEGLAENFATWMFGEEMLGPWVSRTDIETLNTYIKPIIKSALKETGFQNITSYLYGDDIAKMQGYFPVGLPYCAGYACGYYMIKYYLEKTNKSIIEATLLPYSEIIEAVKEFWE | not soluble
MGSDKIHHHHHHMVPMTRFDSATEVVRVGENRYAVELDPGYLIGTAMNGGYLMTVLQRSALAESDHLHAVSSSYHFHRPASSGPAEIETRVLKRGRTVTTVQTTLFQEGRTILTGTLATATLDPHAEPRYAAPQPAIPPQHQCRRVDPRQSHLPDDGFLARVDVDFSPDSYAALARERTVTTPELCGYVDLSARDGGSAKDPLAFLPLAVDALPPIVSLLVDWSWAPTVELTWHLRAIPEPGPLAFRSTCALVSDGWFDENVDLWDARGRLVAQSRQLARVGR | not soluble
MGSDKIHHHHHHMVQSLKVILWGEEIGRLAWDARRRLSYFMYNPAFLKKGLNISPLAAPVDGARGLMPVWGEEAKIYQKLPAFLADSLPDSWGNQLFELWRQQNHLSNADITPLDKLSFIGKRGMGALEFLPEVSRERKAEKIDIKSLANLAERIFSERENARILPEESVTMQSLLTVGTSAGGRQPKAIVAINLKNGEVRSGQISGLEEFDYYLVKFGNSQYSSAELEMSYYELATMAGINMMPSKLYQVDGNNHFMTKRFDRNHGKKIHTQTLAAISPDADSYEQLITVCRKLHLPETDCYEVFRRMVFNVLANNTDDHNKNFSFVMSEDGTWRLSPAYDVTYIFDNGGFLPNEDHCMYIRAKLRNITREDVIQFAKDNGIRRPDAIIRDIVNAMKQFRTVATKYGVAEQWVGRVENTIVDRLKSWRELEEMAPEICELVINGHIIKNIRIEQAYKGNFHLLAEIDGHERKFIIGKNKEEFSLIESMGIANLSSNQLKDMVEKYFIHLKV | not soluble
MGSDKIHHHHHHMVRVRFAPSPTGFLHVGGARTALFNFLFARKEKGKFILRIEDTDLERSEREYEEKLMESLRWLGLLWDEGPDVGGDHGPYRQSERVEIYREHAERLVKEGKAYYVYAYPEEIEEMREKLLSEGKAPHYSQEMFEKFDTPERRREYEEKGLRPAVFFKMPRKDYVLNDVVKGEVVFKTGAIGDFVIMRSNGLPTYNFACVVDDMLMEITHVIRGDDHLSNTLRQLALYEAFEKAPPVFAHVSTILGPDGKKLSKRHGATSVEAFRDMGYLPEALVNYLALLGWSHPEGKELLTLEELISSFSLDRLSPNPAIFDPQKLKWMNGYYLRNMPIEKLAELAKPFFEKAGIKIIDEEYFKKVLEITKERVEVLSEFPEESRFFFEDPAPVEIPEEMKEVFSQLKEELQNVRWTMEEITPVFKKVLKQHGVKPKEFYMTLRRVLTGREEGPELVNIIPLLGKEIFLRRIERSLGG | soluble
MGSDKIHHHHHHMVSLLRRTFSEEIKEELVNVPFGSREEVISELLGFIKARGDLDVKSRHIVFSLHSFAASRRLLNLMKYLSKPVSEIIVEKSHNIKKRYIKITAEYSESFMVIEPFFDVALFVSFLRGLFLSGGSMTNPRYHYHLEINLFEEETLALTRKSLKDFFNINAGIIELRNTRKLYIKSIKDILVFLEAIGVQRKLEEIDRIVTERKVIGDVNRTVNFIEANAIRTANSTARQIRAIELIKENMGLENLPEDLRRVALVRLRNKELSLRELGKKLNLTKSQIYSKLKRIIKIAERFGDVK | not soluble
MGSDKIHHHHHHMVTKTKTRLGNQRPTQSVTLHYVESLAHEAIELYQKTGRNCYPWQVNLLENIMGIDNNGLWVHQKYGYAIPRRNGKTEDVYILELWALHHGLRILHTAHRISTSHSSFEALKKLLEDMGYVEDVDFVSNKAKGQERIEFKSTGSVIQYRTRTSNGGLGEGFDLLIIDEAQEYTVEQESALKYTVTDSDNPMTVMCGTPPTMVSTGTVFTNFRTKVLAGKSEYSGWSEWSVEDIKDVNDIDSWYLTNPSLGYHLTERKIKAEIGDDELDHNIQRLGYWPSFNQKSAISENEWKRLKVDDVPELSGKLFVGIKYGQDGSNVSMSIAARTIDKKIFIEVIDCQSVRNGMQWIINFLQTADIEKVVVDGANGQTLLANEMKDFKLREPIMPTVSEIITANSVWEQAIVQETLRHANQPSLTEVVTNCDKRNIGSNGGFGYKSLYDDRDISLMDSALLAHWVCYMTKPKRKQRISY | not soluble
MGSDKIHHHHHHMVVALQYRTDLLEIHRFTRFESSLAHLGFRHFQPLASLRPWVHRYFHLQVATNLPQSIEQTFYPDGGTSLQFYFPAPSLNTNSDEPKVVFHCGQSLHSHAFVPGIEQMIVRFHPGGAFHLLGIAVQEIQQTSSHTVIEATQLHLPGLNQLLSQLADTNQPMQRIAQLEQWLLQLIKPQLDRGTWSTAGIVQMSLPRLIQPQTRLENFYGQLALSRRQFERRFKQETGLSPAQLQQLNRVKIARDLLSQSPELNLAQVAFDCGFYDQAHLHQHFVRVTQQTPGQYKKRKMSQISNLTQR | not soluble
MGSDKIHHHHHHMVVNESMYQLGSVRSAIRELFEYGKKRAAIVGKENVYDFSIGNPSIPAPQIVNDTIKELVTDYDSVALHGYTSAQGDVETRAAIAEFLNNTHGTHFNADNLYMTMGAAASLSICFRALTSDAYDEFITIAPYFPEYKVFVNAAGARLVEVPADTEHFQIDFDALEERINAHTRGVIINSPNNPSGTVYSEETIKKLSDLLEKKSKEIGRPIFIIADEPYREIVYDGIKVPFVTKYYDNTLVCYSYSKSLSLPGERIGYVLVPDEVYDKAELYAAVCGAGRALGYVCAPSLFQKMIVKCQGATGDINAYKENRDLLYEGLTRIGYHCFKPDGAFYMFVKALEDDSNAFCEKAKEEDVLIVAADGFGCPGWVRISYCVDREMIKHSMPAFEKIYKKYNK | not soluble
